Target: recombinant H2AK119Ub mono-nucleosomes (UniProt P04908)
Assay: AlphaScreen or HTRF; Alphalisa: GST-SSX or GST-SSXdel7aa titrated against 10nM biotinylated nucleosomes; EC50 by nonlinear regression

Chain of GST-SSX1 (78aa) (Q16384 111-188): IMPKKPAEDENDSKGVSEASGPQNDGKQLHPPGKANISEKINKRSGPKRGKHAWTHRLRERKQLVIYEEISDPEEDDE

## GST-SSX1 (78aa) (from UniProt Q16384 111-188) (domain or fragment)
  fold difference (Ub/unmod) by AlphaLisa: 4.8 fold
